Test results taken from the supplement of paper PMC6755084.

B1: F1*; the commonest letter at each place (parent)
chain: GAGACCGCAACTGAAAAGTTGTTATCACTTGTCGTAAGACACTTTGGATGGGTTGAAGTTCTGCACGTAGAAGCAAAAGGC

Variants of: B1
Experiment: fraction ligated after 30 min (ligated reads / total reads); higher = more ligase activity
Conditions: with F1*sub RNA substrate (template-directed ligation), 42 °C
Method in brief: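 Templates from an oligo pool were PCR-amplified, transcribed with T7 and gel-purified to give the ribozyme variants. Ligated and unligated products were separated on gel, reverse transcribed using barcoded primers, and read on a MiSeq. A quality filter of ≥20 was applied to core bases. Fraction ligated was taken as ligated reads as a share of all reads per variant.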

Compared with A36G T43G, A36G T43A is higher in fraction ligated: 0.776 for the first, 0.823 for the second.

First: A36G T43C
Second: T35C A48C
The fraction ligated of the first is higher: 0.81 for the first, 0.766 for the second.

First: T35C A48G
Second: T35C A48T
The fraction ligated of the first is higher: 0.805 for the first, 0.792 for the second.

First: A36T T49C
Second: A36T T49G
The fraction ligated of the first is lower: 0.742 for the first, 0.797 for the second.

Going from A36T T49A to T35C T49C, the fraction ligated falls from 0.797 to 0.731.

Going from T35C T49A to T35C T49G, the fraction ligated rises from 0.756 to 0.804.

Going from A37C G55C to A37C G55T, the fraction ligated rises from 0.826 to 0.845.

First: A37C G55A
Second: A36G C42T
The fraction ligated of the first is lower: 0.837 for the first, 0.849 for the second.

Going from A36G C42A to A36G C42G, the fraction ligated rises from 0.836 to 0.844.

First: A36C T49A
Second: A36C T49G
The fraction ligated of the first is lower: 0.767 for the first, 0.798 for the second.

First: A36C T49C
Second: T35C G46T
The fraction ligated of the first is lower: 0.712 for the first, 0.778 for the second.

Going from T35C G46A to T35C G46C, the fraction ligated falls from 0.829 to 0.792.

First: A36T A39G
Second: A36T A39T
The fraction ligated of the first is higher: 0.842 for the first, 0.836 for the second.

First: A36T A39C
Second: A36G G50A
The fraction ligated of the first is higher: 0.821 for the first, 0.41 for the second.

First: A36G G50C
Second: A36G G50T
The fraction ligated of the first is lower: 0.117 for the first, 0.751 for the second.

First: A36G A39G
Second: A36G A39T
The fraction ligated of the first is higher: 0.862 for the first, 0.815 for the second.

First: A36G A39C
Second: A37C G46T
The fraction ligated of the first is higher: 0.791 for the first, 0.785 for the second.

First: A37C G46A
Second: A37C G46C
The fraction ligated of the first is lower: 0.78 for the first, 0.795 for the second.

First: T35C A36T
Second: T35C A36C
The fraction ligated of the first is higher: 0.839 for the first, 0.8 for the second.

Going from T35C A36G to A36T A57C, the fraction ligated falls from 0.847 to 0.823.

Going from A36T A57T to A36T A57G, the fraction ligated rises from 0.824 to 0.841.

First: A36T G47T
Second: A36T G47A
The fraction ligated of the first is lower: 0.383 for the first, 0.8 for the second.

First: A36T G47C
Second: T35G A37G
The fraction ligated of the first is lower: 0.233 for the first, 0.847 for the second.

Compared with T35G A37T, T35G A37C is higher in fraction ligated: 0.846 for the first, 0.868 for the second.

Going from A36T T43G to A36T T43A, the fraction ligated rises from 0.812 to 0.841.

First: A36T T43C
Second: T35C G47C
The fraction ligated of the first is higher: 0.814 for the first, 0.213 for the second.

Compared with T35C G47T, T35C G47A is higher in fraction ligated: 0.36 for the first, 0.811 for the second.

First: A36G G55T
Second: A36G G55A
The fraction ligated of the first is lower: 0.809 for the first, 0.867 for the second.

Going from A36G G55C to T35A T49C, the fraction ligated falls from 0.773 to 0.768.

First: T35A T49G
Second: T35A T49A
The fraction ligated of the first is higher: 0.817 for the first, 0.763 for the second.

Compared with A36G A41T, A36G A41G is lower in fraction ligated: 0.834 for the first, 0.788 for the second.

Compared with A36G A41C, T35G A41T is higher in fraction ligated: 0.795 for the first, 0.839 for the second.

Compared with T35G A41C, T35G A41G is higher in fraction ligated: 0.808 for the first, 0.816 for the second.

Going from A36G G46A to A36G G46T, the fraction ligated falls from 0.836 to 0.825.

Compared with A36G G46C, T35G A36T is higher in fraction ligated: 0.803 for the first, 0.851 for the second.

Compared with T35G A36G, T35G A36C is lower in fraction ligated: 0.845 for the first, 0.824 for the second.

Going from T35G C42T to T35G C42G, the fraction ligated rises from 0.838 to 0.857.

Going from T35G C42A to T35G T45G, the fraction ligated falls from 0.846 to 0.388.

First: T35G T45C
Second: T35G T45A
The fraction ligated of the first is lower: 0.747 for the first, 0.772 for the second.

Compared with A36T C42T, A36T C42G is lower in fraction ligated: 0.856 for the first, 0.835 for the second.

Compared with A36T C42A, T35C G55C is lower in fraction ligated: 0.834 for the first, 0.796 for the second.

First: T35C G55A
Second: T35C G55T
The fraction ligated of the first is higher: 0.841 for the first, 0.804 for the second.

First: A36G A56T
Second: A36G A56C
The fraction ligated of the first is higher: 0.873 for the first, 0.773 for the second.

Going from A36G A56G to A37G A41T, the fraction ligated rises from 0.814 to 0.859.

Compared with A37G A41C, A37G A41G is higher in fraction ligated: 0.787 for the first, 0.822 for the second.

First: T35C T44G
Second: T35C T44C
The fraction ligated of the first is lower: 0.823 for the first, 0.841 for the second.

Going from T35C T44A to A36G A48G, the fraction ligated falls from 0.851 to 0.798.

First: A36G A48C
Second: A36G A48T
The fraction ligated of the first is higher: 0.773 for the first, 0.0834 for the second.

Going from T35G T49G to T35G T49A, the fraction ligated falls from 0.778 to 0.748.

First: T35G T49C
Second: A36T A41T
The fraction ligated of the first is lower: 0.727 for the first, 0.819 for the second.

Compared with A36T A41G, A36T A41C is lower in fraction ligated: 0.794 for the first, 0.774 for the second.

First: T35C G50C
Second: T35C G50T
The fraction ligated of the first is lower: 0.437 for the first, 0.753 for the second.

Compared with T35C G50A, T35C T45A is higher in fraction ligated: 0.608 for the first, 0.748 for the second.

Compared with T35C T45C, T35C T45G is lower in fraction ligated: 0.783 for the first, 0.399 for the second.

First: T35C G38C
Second: T35C G38T
The fraction ligated of the first is lower: 0.815 for the first, 0.821 for the second.

Compared with T35C G38A, T35G A39G is lower in fraction ligated: 0.856 for the first, 0.799 for the second.

Going from T35G A39C to T35G A39T, the fraction ligated rises from 0.816 to 0.836.

Compared with A36G T44G, A36G T44A is lower in fraction ligated: 0.856 for the first, 0.848 for the second.

First: A36G T44C
Second: A37C T49A
The fraction ligated of the first is higher: 0.85 for the first, 0.778 for the second.

First: A37C T49C
Second: A37C T49G
The fraction ligated of the first is lower: 0.737 for the first, 0.797 for the second.

Going from T35C A39T to T35C A39C, the fraction ligated falls from 0.825 to 0.824.

Compared with T35C A39G, A36T G55C is lower in fraction ligated: 0.833 for the first, 0.817 for the second.

Compared with A36T G55A, A36T G55T is lower in fraction ligated: 0.842 for the first, 0.836 for the second.

Going from A37G A48T to A37G A48G, the fraction ligated falls from 0.799 to 0.795.

First: A37G A48C
Second: A37C A56C
The fraction ligated of the first is lower: 0.763 for the first, 0.818 for the second.

Going from A37C A56T to A37C A56G, the fraction ligated falls from 0.804 to 0.784.

First: T35G C40G
Second: T35G C40T
The fraction ligated of the first is lower: 0.837 for the first, 0.851 for the second.

Compared with T35G C40A, A36G A57T is higher in fraction ligated: 0.838 for the first, 0.878 for the second.

Going from A36G A57G to A36G A57C, the fraction ligated falls from 0.88 to 0.863.

First: A36T A37G
Second: A36T A37C
The fraction ligated of the first is higher: 0.842 for the first, 0.838 for the second.

Going from A36T A37T to A36G C40A, the fraction ligated falls from 0.851 to 0.829.

First: A36G C40T
Second: A36G C40G
The fraction ligated of the first is higher: 0.861 for the first, 0.841 for the second.

Going from A36T T45C to A36T T45A, the fraction ligated falls from 0.783 to 0.778.

Compared with A36T T45G, T35G A56T is higher in fraction ligated: 0.385 for the first, 0.802 for the second.

Going from T35G A56G to T35G A56C, the fraction ligated rises from 0.791 to 0.802.

Going from A37G A56G to A37G A56C, the fraction ligated falls from 0.818 to 0.802.

Going from A37G A56T to A36G T45G, the fraction ligated falls from 0.819 to 0.353.

First: A36G T45C
Second: A36G T45A
The fraction ligated of the first is lower: 0.614 for the first, 0.785 for the second.

Compared with A37C A57G, A37C A57C is lower in fraction ligated: 0.838 for the first, 0.819 for the second.

Going from A37C A57T to A36C A41G, the fraction ligated falls from 0.831 to 0.741.

First: A36C A41T
Second: A36C A41C
The fraction ligated of the first is higher: 0.814 for the first, 0.782 for the second.

Going from T35G G38T to T35G G38C, the fraction ligated rises from 0.845 to 0.865.

Going from T35G G38A to A36C T44G, the fraction ligated falls from 0.847 to 0.827.

A36C T44C was tested, and the fraction ligated was 0.815.
